Data as given in patent US20230012273A1 (Boehringer Ingelheim, published 2023).

Experiments:
[1] = biological target: T1, SIRPαV2 domain 1 (amino acids 31-148) with N-terminal GST tag (human, UniProt Q5TFQ8 30-148); test: crystal structure
T1 construct: also called domain 1 of the extracellular domain of human SIRPα-V2
Experimental: Protein was expressed in Origami B(DE3) cells and purified using standard protocols for GST-tagged proteins. Fractions were analyzed by SDS-PAGE and fractions containing the desired protein were pooled and concentrated to 24 mg/ml in 25 mM HEPES; 100 mM NaCl; 5% Glycerin; pH 7,0.

[2] = biological target: T2, full-length human SIRPγ (NP_061026.2) on cells (human, UniProt Q9P1W8 29-387); test: flow cytometry, primary human CD3+ T cells
T2 construct: on CHO and Expi-CHO cells; endogenous on primary human CD3+ T cells; also called γ WT
Experimental: Antibody binding to primary human T cells expressing endogenous SIRPγ is evaluated by flow cytometry. Human peripheral blood mononuclear cells (PBMCs) are blocked with donkey IgG and incubated on ice with increasing concentrations of antibody for 60 minutes, washed and stained with AF647-conjugated donkey F(ab′)₂ anti-human IgG secondary reagent. […] Cells are washed, fixed, and analyzed by flow cytometry. Median fluorescent intensity of CD3+ gated population is determined and used as a measure of antibody binding.

[3] = biological target: T3, human SIRPβL/SIRPβ1v3 extracellular domain + His-tag (NP_001129316.1) (human, UniProt Q5TFQ8 30-371); test: SPR, Ab captured, ECD-His analyte
T3 construct: also called hSIRPβ1v3; HuSIRPβ1v3
How it was run: (§1)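 In HBS-EP+ (1×), captured antibodies are exposed to a twofold concentration series of SIRP extracellular domain carrying a His tag, using 300 s contact at 30 μl/min and a 600 s dissociation window.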

[4] = biological target: T4, human SIRPγ extracellular domain + His-tag (NP_061026.2) (human, UniProt Q9P1W8 29-360); test: SPR, Ab captured, ECD-His analyte
T4 construct: also called hSIRPγ; HuSIRPγ
How it was run: as §1

[5] = biological target: T5, human SIRPβ1 extracellular domain + His-tag (NP_006056.2) (human, UniProt O00241 30-371); test: SPR, Ab captured, ECD-His analyte
T5 construct: also called hSIRPβ1; HuSIRPβ1
How it was run: as §1

[6] = biological target: T6, mouse SIRPα extracellular domain + His-tag (NP_031573) (mouse, UniProt P97797 32-373); test: SPR, Ab captured, ECD-His analyte
T6 chain: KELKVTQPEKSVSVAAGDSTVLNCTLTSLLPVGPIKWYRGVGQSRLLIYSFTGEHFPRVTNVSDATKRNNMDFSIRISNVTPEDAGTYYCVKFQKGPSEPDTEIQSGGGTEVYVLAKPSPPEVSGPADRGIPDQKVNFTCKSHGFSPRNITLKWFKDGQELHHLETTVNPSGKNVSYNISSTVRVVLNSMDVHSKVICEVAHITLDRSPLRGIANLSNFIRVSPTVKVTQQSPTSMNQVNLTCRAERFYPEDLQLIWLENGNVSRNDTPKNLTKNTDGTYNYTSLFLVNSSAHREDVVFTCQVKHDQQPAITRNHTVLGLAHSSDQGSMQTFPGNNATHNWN
How it was run: as §1

[7] = biological target: T7, cynomolgus SIRPα extracellular domain + His-tag (NP_001271679) (cynomolgus monkey); test: SPR, Ab captured, ECD-His analyte
T7 construct: also called CySIRPα NP_001271679; cynoSIRPα
T7 chain: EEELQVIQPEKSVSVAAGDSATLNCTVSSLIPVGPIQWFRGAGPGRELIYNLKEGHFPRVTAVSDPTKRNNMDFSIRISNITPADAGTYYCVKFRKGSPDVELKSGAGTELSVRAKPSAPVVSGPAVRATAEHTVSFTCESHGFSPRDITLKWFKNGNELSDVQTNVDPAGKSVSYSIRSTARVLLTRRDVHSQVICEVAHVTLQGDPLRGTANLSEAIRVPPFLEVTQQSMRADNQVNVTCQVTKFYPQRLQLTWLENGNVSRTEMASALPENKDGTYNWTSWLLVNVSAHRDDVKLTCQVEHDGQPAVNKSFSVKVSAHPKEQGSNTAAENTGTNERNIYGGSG
How it was run: as §1

[8] = biological target: T8, cynomolgus SIRPα extracellular domain + His-tag (EGM_02252) (cynomolgus monkey); test: SPR, Ab captured, ECD-His analyte
T8 construct: also called CySIRPα EGM_02252; cynoSIRPα
T8 chain: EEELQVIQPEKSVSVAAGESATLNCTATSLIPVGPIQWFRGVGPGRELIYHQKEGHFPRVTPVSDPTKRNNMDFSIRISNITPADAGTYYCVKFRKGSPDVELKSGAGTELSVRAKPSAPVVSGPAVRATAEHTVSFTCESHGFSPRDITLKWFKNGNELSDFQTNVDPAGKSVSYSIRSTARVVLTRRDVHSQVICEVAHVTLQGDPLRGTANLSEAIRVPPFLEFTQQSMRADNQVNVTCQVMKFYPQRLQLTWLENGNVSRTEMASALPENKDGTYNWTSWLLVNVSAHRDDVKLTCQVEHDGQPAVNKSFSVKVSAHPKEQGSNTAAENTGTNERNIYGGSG
How it was run: as §1

[9] = biological target: T9, cynomolgus SIRPβ1v3 extracellular domain + His-tag (XP_005568593) (cynomolgus monkey); test: SPR, Ab captured, ECD-His analyte
T9 construct: also called Cyno SIRPβ1v3; cynoSIRPβ1v3
T9 chain: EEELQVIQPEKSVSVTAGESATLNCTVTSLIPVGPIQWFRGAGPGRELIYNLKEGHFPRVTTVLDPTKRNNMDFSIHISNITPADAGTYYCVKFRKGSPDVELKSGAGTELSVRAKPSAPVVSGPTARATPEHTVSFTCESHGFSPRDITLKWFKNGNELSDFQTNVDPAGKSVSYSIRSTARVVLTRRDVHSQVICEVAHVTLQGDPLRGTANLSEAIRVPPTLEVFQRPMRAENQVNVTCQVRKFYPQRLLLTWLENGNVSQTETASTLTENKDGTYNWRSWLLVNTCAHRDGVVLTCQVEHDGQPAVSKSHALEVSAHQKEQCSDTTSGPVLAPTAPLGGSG
How it was run: as §1

[10] = biological target: T10, full-length human SIRPβL (NP_001129316.1) on cells (human, UniProt Q5TFQ8 30-398); test: flow cytometry, U937 SIRPα KO cells
T10 construct: on U937 SIRPα KO cells and Expi-CHO cells; also called βL WT; SIRPβ1v3
Experimental: Antibody binding to cells expressing full-length human SIRPβ1 (NP_006056.2) and SIRPβL (NP_001129316.1) is evaluated by flow cytometry. SIRPβ1- or SIRPβL-expressing U937^{SIRPα KO} cells are blocked with donkey IgG and incubated on ice with increasing concentrations of antibodies for 60 minutes, washed and stained with AF647-conjugated donkey F(ab′)₂ anti-human IgG secondary reagent. Cells are washed, fixed, and analyzed by flow cytometry. Median fluorescent intensity is determined and used as a measure of antibody binding.

[11] = biological target: T11, cynomolgus SIRPγ (XP_005568591) extracellular domain + His-tag (cynomolgus monkey, UniProt Q9P1W8 29-359 (human entry)); test: SPR
T11 construct: SPR analyte; also called Cyno SIRPγ XP_005568591; cynoSIRPγ; not shown: His-tag
T11 chain: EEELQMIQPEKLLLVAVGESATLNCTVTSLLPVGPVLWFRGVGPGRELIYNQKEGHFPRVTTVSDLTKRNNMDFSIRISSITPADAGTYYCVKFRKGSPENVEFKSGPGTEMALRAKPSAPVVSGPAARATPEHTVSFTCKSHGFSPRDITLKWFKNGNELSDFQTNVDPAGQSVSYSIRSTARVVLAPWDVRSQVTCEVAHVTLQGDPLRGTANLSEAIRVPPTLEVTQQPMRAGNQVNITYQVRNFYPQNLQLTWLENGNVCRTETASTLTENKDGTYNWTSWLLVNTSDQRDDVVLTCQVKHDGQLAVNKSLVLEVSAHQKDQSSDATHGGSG
Experimental: (§2) The binding affinity of anti-SIRPα antibodies to the various SIRPα analytes is determined by surface plasmon resonance (SPR) using a ProteOn XPR36 (Bio-Rad). The running buffer for this experiment and all dilutions (except where stated) are done in 1×HBS-EP+. […] The sensorchip is deactivated with 1M ethanolamine HCl for 420 sec at a flowrate of 10 μl/min.
(§3) The analyte is injected over the captured antibody for 300 sec at a flowrate of 30 μl/min. The dissociation is done for 600 sec. Two-fold serial dilutions of each SIRP protein (Extracellular Domain+His-Tag) are injected as analyte with the highest concentrations indicated in table 36 below.

[12] = biological target: T12, cynomolgus SIRPα (EGM_02252) extracellular domain + His-tag (cynomolgus monkey); test: SPR
T12 construct: SPR analyte; also called CySIRPα EGM_02252; cynoSIRPα; not shown: His-tag
T12 chain: T8 chain
Experimental: as §2, §3

[13] = biological target: T13, cynomolgus SIRPβ1 (XP_005568598) extracellular domain + His-tag (cynomolgus monkey); test: SPR
T13 construct: SPR analyte; also called Cyno SIRPβ1 XP_005568598; cynoSIRPβ1; not shown: His-tag
T13 chain: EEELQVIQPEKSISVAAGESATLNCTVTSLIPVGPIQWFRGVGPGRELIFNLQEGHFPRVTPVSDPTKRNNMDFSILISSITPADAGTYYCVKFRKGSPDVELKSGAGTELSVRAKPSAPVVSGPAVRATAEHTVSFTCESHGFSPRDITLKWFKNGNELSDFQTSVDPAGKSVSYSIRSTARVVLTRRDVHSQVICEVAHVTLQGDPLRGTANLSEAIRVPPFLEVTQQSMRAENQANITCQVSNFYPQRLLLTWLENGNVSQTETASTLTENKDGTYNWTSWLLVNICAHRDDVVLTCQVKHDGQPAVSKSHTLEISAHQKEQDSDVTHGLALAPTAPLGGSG
Experimental: as §2, §3

[14] = biological target: T14, cynomolgus SIRPβ1v3 (XP_005568593) extracellular domain + His-tag (cynomolgus monkey); test: SPR, antibody captured, ECD-His analyte
T14 construct: SPR analyte; also called Cyno SIRPβ1v3 XP_005568593; cynoSIRPβ1v3; not shown: His-tag
T14 chain: T9 chain
Experimental: as §2, §3

[15] = biological target: T15, cynomolgus SIRPα (NP_001271679) extracellular domain + His-tag (cynomolgus monkey); test: SPR, antibody captured, ECD-His analyte
T15 construct: SPR analyte; also called CySIRPα NP_001271679; cynoSIRPα; not shown: His-tag
T15 chain: T7 chain
Experimental: as §2, §3

T10 sequence (Q5TFQ8 30-398): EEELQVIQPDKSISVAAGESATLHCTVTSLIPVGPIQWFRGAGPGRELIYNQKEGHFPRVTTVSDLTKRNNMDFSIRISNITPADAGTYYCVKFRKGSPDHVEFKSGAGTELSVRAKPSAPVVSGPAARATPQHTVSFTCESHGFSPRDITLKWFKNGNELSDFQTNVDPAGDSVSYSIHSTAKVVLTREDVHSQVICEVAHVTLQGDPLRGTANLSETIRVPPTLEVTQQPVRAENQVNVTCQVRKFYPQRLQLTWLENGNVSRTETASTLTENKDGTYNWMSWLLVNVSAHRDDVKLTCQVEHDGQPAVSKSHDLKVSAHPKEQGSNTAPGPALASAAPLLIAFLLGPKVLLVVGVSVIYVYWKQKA
T3 sequence (Q5TFQ8 other isoform, or with tags, fused parts or gaps): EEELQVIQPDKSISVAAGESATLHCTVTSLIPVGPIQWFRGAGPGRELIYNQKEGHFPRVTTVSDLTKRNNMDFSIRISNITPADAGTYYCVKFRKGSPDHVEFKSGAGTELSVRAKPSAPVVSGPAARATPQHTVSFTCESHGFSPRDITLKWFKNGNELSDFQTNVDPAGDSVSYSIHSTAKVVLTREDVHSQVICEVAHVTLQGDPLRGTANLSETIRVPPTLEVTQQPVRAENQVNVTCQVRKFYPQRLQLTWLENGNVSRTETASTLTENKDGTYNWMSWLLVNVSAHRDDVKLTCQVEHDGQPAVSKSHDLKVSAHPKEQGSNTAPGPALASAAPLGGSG
T2 sequence (Q9P1W8 29-387): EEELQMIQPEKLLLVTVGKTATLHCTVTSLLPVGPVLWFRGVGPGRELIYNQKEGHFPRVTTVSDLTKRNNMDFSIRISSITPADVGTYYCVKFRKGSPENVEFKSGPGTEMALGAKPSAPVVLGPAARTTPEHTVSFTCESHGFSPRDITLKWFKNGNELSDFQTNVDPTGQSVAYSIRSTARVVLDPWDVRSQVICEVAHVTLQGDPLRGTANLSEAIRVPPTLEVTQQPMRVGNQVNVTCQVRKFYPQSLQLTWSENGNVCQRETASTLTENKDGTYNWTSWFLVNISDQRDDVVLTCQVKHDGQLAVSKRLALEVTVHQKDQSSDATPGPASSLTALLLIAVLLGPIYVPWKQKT
T1 sequence (Q5TFQ8 other isoform, or with tags, fused parts or gaps): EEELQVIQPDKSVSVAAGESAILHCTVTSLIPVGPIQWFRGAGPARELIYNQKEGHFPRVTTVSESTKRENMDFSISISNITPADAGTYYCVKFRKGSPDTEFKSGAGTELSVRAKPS
T4 sequence (Q9P1W8 29-360): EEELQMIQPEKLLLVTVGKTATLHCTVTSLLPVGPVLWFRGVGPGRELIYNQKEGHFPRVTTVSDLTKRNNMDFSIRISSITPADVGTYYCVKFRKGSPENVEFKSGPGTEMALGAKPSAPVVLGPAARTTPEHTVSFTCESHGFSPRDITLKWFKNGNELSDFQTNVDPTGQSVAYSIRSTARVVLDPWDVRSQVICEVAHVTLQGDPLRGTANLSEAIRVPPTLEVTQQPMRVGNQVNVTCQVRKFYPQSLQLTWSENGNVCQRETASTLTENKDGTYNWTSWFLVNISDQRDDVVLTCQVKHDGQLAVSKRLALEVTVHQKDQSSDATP
T5 sequence (O00241 other isoform, or with tags, fused parts or gaps): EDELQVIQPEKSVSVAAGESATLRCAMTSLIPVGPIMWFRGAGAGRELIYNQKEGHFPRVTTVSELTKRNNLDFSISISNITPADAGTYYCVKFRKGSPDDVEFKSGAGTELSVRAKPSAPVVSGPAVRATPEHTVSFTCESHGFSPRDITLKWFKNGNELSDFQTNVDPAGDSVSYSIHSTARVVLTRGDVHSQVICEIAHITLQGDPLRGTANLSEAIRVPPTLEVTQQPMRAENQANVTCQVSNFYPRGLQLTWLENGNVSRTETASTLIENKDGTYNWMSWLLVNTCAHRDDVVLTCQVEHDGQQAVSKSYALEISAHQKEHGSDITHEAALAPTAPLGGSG

B1: Fab fragment of Antibody A (Fab, V domains shown)
VH: EVQLVESGGGLVQPGGSLRLSCAASGFTLSSYDMHWVRQATGKGLEWVSAIGTAGDTYYTGSVKGRFTISRENAKNSLYLQMNSLRAGDTAVYYCVRGGVWDDAFDIWGQGTMVTVSS
VL: DIQMTQSPSSLSASVGDRVTITCRASQDINNYLAWFQQKPGKAPKSLIYTASSLHSGVPSKFSGSGSGTDFTLTISSLQPEDFATYYCQQYVSYPYTFGQGTKLEIK
notes: Fab; also called Fab of Antibody A
B1: binds [1].

B2: Antibody F (antibody, human IgG4 S228P, kappa)
heavy: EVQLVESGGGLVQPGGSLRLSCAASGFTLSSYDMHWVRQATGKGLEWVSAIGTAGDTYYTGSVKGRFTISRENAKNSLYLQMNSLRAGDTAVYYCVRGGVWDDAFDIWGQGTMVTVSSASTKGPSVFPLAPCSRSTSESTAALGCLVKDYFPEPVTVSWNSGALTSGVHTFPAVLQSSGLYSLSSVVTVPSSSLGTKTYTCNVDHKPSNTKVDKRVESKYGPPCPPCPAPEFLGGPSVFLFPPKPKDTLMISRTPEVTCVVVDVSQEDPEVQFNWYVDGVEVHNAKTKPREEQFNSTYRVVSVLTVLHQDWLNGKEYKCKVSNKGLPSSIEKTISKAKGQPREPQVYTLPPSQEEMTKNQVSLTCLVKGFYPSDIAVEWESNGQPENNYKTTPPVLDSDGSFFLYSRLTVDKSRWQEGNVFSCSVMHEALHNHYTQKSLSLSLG
light: DIQMTQSPSSLSASVGDRVTITCRASQDINNYLAWFQQKPGKAPKSLIYTASSLHSGVPSKFSGSGSGTDFTLTISSLQPEDFATYYCQQYVSYPYTFGQGTKLEIKRTVAAPSVFIFPPSDEQLKSGTASVVCLLNNFYPREAKVQWKVDNALQSGNSQESVTEQDSKDSTYSLSSTLTLSKADYEKHKVYACEVTHQGLSSPVTKSFNRGEC
B2: no binding [2]; no binding (tested: 100 nM) [3]; no binding (tested: 1000 nM) [4]. For the same binder, the Kd [5] was 84 nM, the binding result [6] was “no binding” and the Kd [7] was 506 nM. For the same binder, the Kd [8] was 230 nM, the Kd [9] was 227 nM and the binding result [10] was “no binding”.

B3: Antibody E16 (antibody, human IgG1, kappa, L234A L235A, V domains shown)
VH: QVQLQESGPGLVRPSETLSLTCTVSGGSIRNYYWSWIRQPPGKGLEWIGFIYYNGRTFYNPSLKSRVTISLDTSKNQFSLKMTSVTAADTAVYYCARVRAYSGIGLDGTDVWGQGTTVTVSS
VL: DIVMTQSPLSLPVTPGEPASISCKSSQSLLYSNAYNYLDWYLQRPGQSPQLLIYLGSNRASGVPDRFSGSGSGTDFTLKISRVEAEDVGVYYCMQALQTPLTFGGGTKVEIKR
B3: no binding (tested: 1000 nM) [11]; no binding (tested: 1000 nM) [12]; no binding (tested: 1000 nM) [13]. The Kd [14] was 30.3 nM and the Kd [15] was 50.3 nM.
